Results on two molecules are retold here after patent EP3080145B1.

In experiment [1] the target is HFBI variant D40Q/D43N (Trichoderma reesei) (UniProt P52754). Kind of experiment: QCM-D, enzyme injected over adsorbed D40Q/D43N layer, pH series.
For experiment [2] the target is unchanged. Kind of experiment: QCM-D, enzyme injected over adsorbed D40Q/D43N layer, around pH 5.

Chain of UniProt P52754 (P52754 23-97 D62Q/D65N, form in doubt): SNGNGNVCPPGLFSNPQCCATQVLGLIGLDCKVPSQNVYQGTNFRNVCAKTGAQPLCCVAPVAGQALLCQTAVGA

In turn, “Trichoderma reesei xylanase II (from UniProt P36217 34-223) (enzyme)” yielded an adsorbed mass in experiment [1] of 55 to 100 ng/cm^2.

B1: Trichoderma reesei cellobiohydrolase I (enzyme, UniProt P62694 18-513, looked up)
chain: QSACTLQSETHPPLTWQKCSSGGTCTQQTGSVVIDANWRWTHATNSSTNCYDGNTWSSTLCPDNETCAKNCCLDGAAYASTYGVTTSGNSLSIGFVTQSAQKNVGARLYLMASDTTYQEFTLLGNEFSFDVDVSQLPCGLNGALYFVSMDADGGVSKYPTNTAGAKYGTGYCDSQCPRDLKFINGQANVEGWEPSSNNANTGIGGHGSCCSEMDIWEANSISEALTPHPCTTVGQEICEGDGCGGTYSDNRYGGTCDPDGCDWNPYRLGNTSFYGPGSSFTLDTTKKLTVVTQFETSGAINRYYVQNGVTFQQPNAELGSYSGNELNDDYCTAEEAEFGGSSFSDKGGLTQFKKATSGGMVLVMSLWDDYYANMLWLDSTYPTNETSSTPGAVRGSCSTSSGVPAQVESQSPNAKVTFSNIKFGPIGSTGNPSGGNPPGGNRGTTTTRRPATTTGSSPGPTQSHYGQCGGIGYSGPTVCASGTTCQVLNPYYSQCL
The molecule B1 returned a maximum adsorption (adsorbed mass) in experiment [2] of 600 ng/cm^2.
